One molecule from article PMC6647829, “Copper–zinc superoxide dismutase (Sod1) activation terminates interaction between its copper chaperone (Ccs) and the cytosolic metal-binding domain of the copper importer Ctr1” (Biometals, 2019) can be followed below.

Common to all, as to details: both partners purified
The target of assay [1] is T1, Human wild-type copper chaperone for Sod1 (Ccs), His8-tag removed (human, UniProt O14618 1-274).
T1 construct: Human wild-type Ccs1, UniProtKB O14618, cloned into pAG8H; Stripped of metals (apo) or Cu(I)-loaded as the experiment says; the methods tell its removal in general; also called Ccs1; WT Ccs; not shown: His8, N-terminal, cleaved
T1 sequence (looked up): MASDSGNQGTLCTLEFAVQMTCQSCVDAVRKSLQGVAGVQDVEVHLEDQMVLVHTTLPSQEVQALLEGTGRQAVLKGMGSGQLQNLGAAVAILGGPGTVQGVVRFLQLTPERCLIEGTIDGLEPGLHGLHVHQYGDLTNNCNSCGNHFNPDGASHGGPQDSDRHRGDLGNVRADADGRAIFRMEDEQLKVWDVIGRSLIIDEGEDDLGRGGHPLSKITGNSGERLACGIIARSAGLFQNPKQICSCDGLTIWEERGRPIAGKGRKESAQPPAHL
Put plainly: other fluorescence titration; HI-FI method, fluorescence quenching; 10 nM Alexa-546 Sod1 probe, Zn-bound; apo-Ccs titrated in increasing concentrations; fit in GraphPad Prism.

Assay [2] deals with T1, Human wild-type copper chaperone for …. Put plainly: other fluorescence titration; HI-FI method, fluorescence quenching; 10 nM Alexa-546 Sod1 probe, completely immature (metal-free); Ccs titrated in increasing concentrations; fit in GraphPad Prism.
The target in assay [3] is T2, Pre-made Cu(I)-Ctr1c·Ccs complex (human, UniProt O14618 1-274).
T2 construct: Human wild-type Ccs1, UniProtKB O14618; as m2; C-terminal 13 amino acids of the human Ctr1 Cu(I)-transporter (Ctr1c), UniProtKB O15431; Held together through Cu(I); also called Cu(I)-Ctr1c complexed Ccs; Cu(I)-Ctr1c488·Ccs; source: formed from purified E. coli Ccs and the Cu(I)-loaded synthetic peptide; not shown: His8, N-terminal, cleaved
The description is as above.

B1: H46R/H48Q/C146S Sod1 labelled with Alexa-546-C-maleimide (Sod1 probe) (enzyme)
chain: not shown
modifications: Alexa-546-C-maleimide label (residue not stated)
notes: Human Sod1, UniProtKB P00441, H46R/H48Q/C146S; the two states are told apart by the assay; also called completely immature Sod1; source: gel filtration after labelling
For orientation: Kd means the constant that tells how readily two partners part at equilibrium. A high value points to a looser complex. Consider B1, for which the Kd in assay [1] was found to be 22 ± 6 nM; in assay [2], 89 ± 11 nM; in assay [3], 120 ± 27 nM.
